{"source": "the nanobody polyreactivity screen of Harvey et al. (2022)"}
{"experiment": "yeast display, Sf9 membrane polyspecificity reagent, FACS + sequencing; frameworks hold sequencing errors", "summary_of_the_method": "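Polyreactivity labels are assigned by the sorting gate from which each nanobody was recovered. The gates were low and high (top ~1%), set on anti-HA fluorescence for expression and streptavidin fluorescence for reagent binding. Before sorting, galactose-induced (36–48 hours) yeast display cells were stained for 1 hour at 4 °C with 10% biotinylated, detergent-solubilized Sf9 membrane reagent.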"}
{"sequence": "QVQLVESGGGLVQAGGSLRLSCAASGRIFYYNSMGWYRQAPGKERELVAAIRRSGSRTYYADSVKGRFTISRDNAKNTVYFQMNSLIPEDTAVYYCAAKYASFGHHDSWGQGTQVTVSS", "polyreactivity (PSR sort gate)": "high polyreactivity"}
{"sequence": "QVQLVESGGGLVQAGGSLRLSCAASGRIFYYNSMGWYRQAPGKERELVASITGSGGSTYYADSVKGRFTISRDNAKNTVYLQMNSLKPEDTAVYYFAKREYLYPFYYVAKYDYWGQGTQVTVSS", "polyreactivity (PSR sort gate)": "low polyreactivity"}
{"sequence": "QVQLVESGGGLVQAGGSLRLSCAASGRIFYYNTMGWYRQAPGKARELVAAITTNGGSTYYADSVKGRFTISRDNAKNTVYLQMNSPKPEDTAVYYCNRDRYPYYYAYNYWGQGTQVTVSS", "polyreactivity (PSR sort gate)": "low polyreactivity"}
{"sequence": "QVQLVESGGGLVQAGGSLRLSCAASGRIFYYTTMGWSRQAPGKERELVAAISVSGGSTYYADSVKGRFTISRDKAKNTVYLQRNSLKPEDTAVYYCNAKDWYFYRYDYWGQGTQVTVSS", "polyreactivity (PSR sort gate)": "low polyreactivity"}
{"sequence": "QVQLVESGGGLVQAGGSLRLSCAASGRIFYYYAMGWYRQAPGKERELVADITWSGGSTYYADSVKGRFTISRDNAKNTVYLLRNSLKPEDTAVYYCNAVSFNYLLEYDYWGQGTQVTVSS", "polyreactivity (PSR sort gate)": "high polyreactivity"}
{"sequence": "QVQLVESGGGLVQAGGSLRLSCAASGRIFYYYAMGWYRQAPRKERELVASINSGGSTYYADSVKGRFTISRDNAKNTVYLQMNSMKPEDTAVYYCAAGFQLVKGYLSGRAAYYYWGQGTQVTVSS", "polyreactivity (PSR sort gate)": "high polyreactivity"}
{"sequence": "QVQLVESGGGLVQAGGSLRLSCAASGRIFYYYDMGWYRQAPGKERELVAAINYSGGSTYYADSVKGRFTISRDNAKNTVYLQMNSLKPEDTAVYYCAADGYYYYSYGTTDQDDYWGQGTQVTVSS", "polyreactivity (PSR sort gate)": "low polyreactivity"}
{"sequence": "QVQLVESGGGLVQAGGSLRLSCAASGRIFYYYDMGWYRQAPGKERELVAAITYSDSSTYADSVKGRFTISRDNAKNTVYLQMNSLKPEDTAVYYCAADYVYPGVRLEMDYWGQGTQVTVSS", "polyreactivity (PSR sort gate)": "low polyreactivity"}
{"sequence": "QVQLVESGGGLVQAGGSLRLSCAASGRIFYYYVMGWYRQAPGKERELVAVIDWSGGSTYYADSVKGRFTISRDNAKNTVYLQMNSLKPEDTAVYYCAKVWLNFSLAYEDYDYWGQGTQVTVSS", "polyreactivity (PSR sort gate)": "low polyreactivity"}
{"sequence": "QVQLVESGGGLVQAGGSLRLSCAASGRIFYYYVMGWYRQAPGKERELVAVIDWSGGSTYYADSVKGRFTISRDNAKNTVYLQMNSLKPEDTGVYYCAKVWLKFSLAYEDYDYLGQGTQVTVSS", "polyreactivity (PSR sort gate)": "low polyreactivity"}
{"sequence": "QVQLVESGGGLVQAGGSLRLSCAASGRIGYYVMGWYRQAPGKERELVAAISRSGDSTYYADSVKGRFTISRDNAKNTVYLQMNSLKPEDTAVYYCAAASGWRYFYKYDYWGQGTQVTVSS", "polyreactivity (PSR sort gate)": "high polyreactivity"}
{"sequence": "QVQLVESGGGLVQAGGSLRLSCAASGRIIANYAMGWYRQAPGKEREVVAGISSGGSTNYADSVKGRFTISRDNAKNPVYLQMNSLKPEDTAVYYCAKDPAYRVSKYDYWGQGTQVTVSS", "polyreactivity (PSR sort gate)": "low polyreactivity"}
{"sequence": "QVQLVESGGGLVQAGGSLRLSCAASGRIIAYNTMGWNRQAHWKERDWVAAISSRGGRTYYADSVKGRFTISRDNAKNTVYLEMNSLKPEDTAVYYCAAKYYRYGDPDRYDYWGQGTQVTVSS", "polyreactivity (PSR sort gate)": "high polyreactivity"}
{"sequence": "QVQLVESGGGLVQAGGSLRLSCAASGRIIAYYAMGWSRQAPGKERELVAAINWNGGSTYYADSVKGRFTISRDNAKNTVYLQMNSLKPEDTAVYYCNAGRTYTALNGDYWGQGTQVTLSS", "polyreactivity (PSR sort gate)": "high polyreactivity"}
{"sequence": "QVQLVESGGGLVQAGGSLRLSCAASGRIIDLNAMGWYRQAPGKERQLVAAISYSGGRTFYADSVKGRFTISRDNAKNTVYLQMNSLKPEDTAVYYCNARYGKPAYQYGMDYWGQGTQVTVSS", "polyreactivity (PSR sort gate)": "low polyreactivity"}
{"sequence": "QVQLVESGGGLVQAGGSLRLSCAASGRIIDYYTMGWDRQAPGKERELVATITIVGITNYADSVKGRFTISRDNAKNTVYLQMNSLKPEDTAVYYCAADRADFFVIRTIDPYDYWGQGTQVTVSS", "polyreactivity (PSR sort gate)": "low polyreactivity"}
{"sequence": "QVQLVESGGGLVQAGGSLRLSCAASGRIIFAYTMGWYRQAPGKERELVAAISSSGSTYYADSVKGRFTISRDNAKNTVYLQMNSLKPEDTAVYYLRVQRRAYRYDYWGQGTQVTVTS", "polyreactivity (PSR sort gate)": "high polyreactivity"}
{"sequence": "QVQLVESGGGLVQAGGSLRLSCAASGRIIGFNAMGWYRQAPGKERELVASIRTTGGSTRYADSVKGRFTISRDNAKNTVYLQMNSLKPEDTAVYYCAARSRLRYLYDYWGQVTQVTVSS", "polyreactivity (PSR sort gate)": "high polyreactivity"}
{"sequence": "QVQLVESGGGLVQAGGSLRLSCAASGRIIGKNAMGWYRQAPGEERELVAAIRYNGGRTYYADSVKGRFTISRDNAKNTVYLQMNSLKPEDTAVYYCATRTYRVDPEFGYWGQGTQVTVSS", "polyreactivity (PSR sort gate)": "high polyreactivity"}
{"sequence": "QVQLVESGGGLVQAGGSLRLSCAASGRIIGLYTMGWYRQAPGKERELVAAINIRGTRTYYADSVKGRFTISRDNAKNTVYLQMNSLKPEDTAVYYCAAASYRSGRYTFDYWGQGTQVTVSS", "polyreactivity (PSR sort gate)": "high polyreactivity"}
{"sequence": "QVQLVESGGGLVQAGGSLRLSCAASGRIIGRYAMGWYRQAPGKERELVAGITIRGGSTYYADSVKGRFTISRDNAKNTVYLQMNSLKPEDTAVYYCAARHGSGFRYYPGHAGGYWGQGTQVTVSS", "polyreactivity (PSR sort gate)": "low polyreactivity"}
{"sequence": "QVQLVESGGGLVQAGGSLRLSCAASGRIIGYNAMGWYRQAPGKERELVASIRYSGGSTYYADSVKGRFTISRDNAMNTVYLQMNSLKPEDTAVYYCATRVTYRRRFDYWGQGTQVTVSS", "polyreactivity (PSR sort gate)": "high polyreactivity"}
{"sequence": "QVQLVESGGGLVQAGGSLRLSCAASGRIIGYYAMGWYRQAPGKERELVAAISRRGGSTYYADSVKGRFTISRDNAKNTVYLQMNSLKPEDTAVYYCATLTLESFSALYYWGQGTQVTVSS", "polyreactivity (PSR sort gate)": "low polyreactivity"}
{"sequence": "QVQLVESGGGLVQAGGSLRLSCAASGRIIIRYAMGWYRQAPGKERELVAGISRRGGSTSYADSVKWRFTISRDNAKNTVYLQMNSLKPEDTAVYYCGADSQYKYDYWGQGTQVTVSS", "polyreactivity (PSR sort gate)": "high polyreactivity"}
{"sequence": "QVQLVESGGGLVQAGGSLRLSCAASGRIIKRYAMGWYRQAPGKERELVAAISASGSSTYYADSVKGRFTISRDNAKNTVYLQMNSLKPEDTAVYYCAAWAYSPSASYDYWGQGTQVTVSS", "polyreactivity (PSR sort gate)": "high polyreactivity"}
{"sequence": "QVQLVESGGGLVQAGGSLRLSCAASGRIINYYAMGWYRPAPGKERELVAGISWSGGSTSYADSVKGRFTISRDNAKNTVYLQMNSLKPEDTAVYYCAAGVFKAFYYWGQGTQVTVSS", "polyreactivity (PSR sort gate)": "low polyreactivity"}
{"sequence": "QVQLVESGGGLVQAGGSLRLSCAASGRIIPKYAMGWYRQAPGKERELVAAISSSGGSTYYADSVKGRFTISRDNAKNTVYLQINSLKPEDTAVYYCNVDKATRYRYPGFDYWGQGTQVTVSS", "polyreactivity (PSR sort gate)": "high polyreactivity"}
{"sequence": "QVQLVESGGGLVQAGGSLRLSCAASGRIIRINAMGWYRQAPGKERELVAAITRGGTTYADSVKGRFTISRDNAKNTVYLQMNSLKPEDTAVYYCNARTGRSPTGFRYWGQGTQVTVSS", "polyreactivity (PSR sort gate)": "high polyreactivity"}
{"sequence": "QVQLVESGGGLVQAGGSLRLSCAASGRIIRWYAMGWYRQAPGKERELVAAISGSGGSTYYADSVKGRFTISRDNAKNTVYLQMNSLKPEDTAVYYCAAAYYRDSDRRYNYWGQGTQVTVSS", "polyreactivity (PSR sort gate)": "high polyreactivity"}
{"sequence": "QVQLVESGGGLVQAGGSLRLSCAASGRIIRYYAMGWYRPAPGKERELVAGITTGGGSTYYADSVKGRFTISRDNAKNTVYLQMNSLKPEDTAVYYCAARYYTTYYWGQGTQVTVSS", "polyreactivity (PSR sort gate)": "high polyreactivity"}
{"sequence": "QVQLVESGGGLVQAGGSLRLSCAASGRIISHNAMGWYRQAPGKERELVAVISNGGSTYYADSVKGRFTISRDNAKNTVYLQMNSLKPEDTAVYYCAARYTPQSGFYYRGQGTQVTVSS", "polyreactivity (PSR sort gate)": "low polyreactivity"}
{"sequence": "QVQLVESGGGLVQAGGSLRLSCAASGRIISRNAMGWYRQAPGKERELVAAISGSGSRTFYADSVKGRFTISRDNAKNTVYLQMNSLKPEDTAVYYCAADRSSYSRFYYWGQGTQVTVSS", "polyreactivity (PSR sort gate)": "high polyreactivity"}
{"sequence": "QVQLVESGGGLVQAGGSLRLSCAASGRIIYGYTMGWYRQAPGKERELVAVISRGGSTNYADSVKGRFSISRDNAKYTVYLQMNSLKPEDTAVYYCAATTKLPRGNYWYYYWGQGTQVTVSS", "polyreactivity (PSR sort gate)": "high polyreactivity"}
{"sequence": "QVQLVESGGGLVQAGGSLRLSCAASGRIIYINAMGWYRQAPGKERELVAAISSDGNTNYADSVKGRFTISRDNAKNTVYLQMNSLKPEDTAVYYCNADVWFYYTFDYWGLGTQVTVSS", "polyreactivity (PSR sort gate)": "low polyreactivity"}
{"sequence": "QVQLVESGGGLVQAGGSLRLSCAASGRIIYRYAMGWYRQAPGKERELVAAIRYSGGRTYYADSVKGRFTISRDNAKNTVYLQMNSLKPEDTAVYYCAADGQWYYARFRGGDYENDYWGQGTQVTVSS", "polyreactivity (PSR sort gate)": "low polyreactivity"}
{"sequence": "QVQLVESGGGLVQAGGSLRLSCAASGRIKYNVMGWYRQAPGKEMELVAAITRSAGRTYYADSVKGRFSISRDNAKNTVYLQMNSLKPEHTGGYYCAAQAERYGYVYWGQGTQVTVSS", "polyreactivity (PSR sort gate)": "low polyreactivity"}
{"sequence": "QVQLVESGGGLVQAGGSLRLSCAASGRILAANAMRWYRQAPGKERELVAAISWSGGRTYYADSVKGRFTISRDNAKNTVYLQMNSLKPEDTAVYYCASVRRYKMDYWGQGTQVTVSS", "polyreactivity (PSR sort gate)": "high polyreactivity"}
{"sequence": "QVQLVESGGGLVQAGGSLRLSCAASGRILARYTMGWYRQAPGKERELVAAISRSSGSTYYADSVKGRFTISRDTAKNTVYLQMNSLKPEDTAVYYCAAYLSYWGQGTQVTVSS", "polyreactivity (PSR sort gate)": "high polyreactivity"}
{"sequence": "QVQLVESGGGLVQAGGSLRLSCAASGRILDYNAMGWYRQAPGKERELVAAITWRGGSTYYADSVKGRFTISRDNAKNTVYLQMNSLKPEDTAVYYCNARWSKTAHTRFGYWGQGTQVTVSS", "polyreactivity (PSR sort gate)": "low polyreactivity"}
{"sequence": "QVQLVESGGGLVQAGGSLRLSCAASGRILFGYAMGWYRQAPGKERELVADITSTGSTNYADSVKGRFTISRDNAKNSVYLQMNSLKPEDTAVYYCNARRESYYQRYRVDYWGQGTQVTVSS", "polyreactivity (PSR sort gate)": "low polyreactivity"}
{"sequence": "QVQLVESGGGLVQAGGSLRLSCAASGRILGAYAMGWYRQAPGKERELVASISSGGRTYYADSVKGRFTISRDNAKNTVYLQMNSLKPEDTAVYYCNRDRNSGFYRRYGYWGQGTQVTVSS", "polyreactivity (PSR sort gate)": "high polyreactivity"}
{"sequence": "QVQLVESGGGLVQAGGSLRLSCAASGRILGDYAMGWYRQAPGTEREFVAAIDYNGGSTNYADSVMGRFTISRDNAKNTVYFQMNSLKPEDTAVYYCAKTDGFYRGYGYWGQGTQVTVSS", "polyreactivity (PSR sort gate)": "low polyreactivity"}
{"sequence": "QVQLVESGGGLVQAGGSLRLSCAASGRILGKYAMGWYRQAPGKERELVAAIRLRGGSTYYADSVKGRFTISRDNAKNTVYLQMNSLKPEDTAVYYCAARYWDRSQAYTYWGQGTQVTVSS", "polyreactivity (PSR sort gate)": "high polyreactivity"}
